Patent US20250346668A1 (GENOR BIOPHARMA, published 2025)
Residue numbers refer to the chain shown, from its start.

B1: hAb008-21 (antibody, V domains shown)
VH: QVQLVQSGAEVKKPGASVKVSCKASGYTFTDYTVNWVRQAPGQRLEWIGYINPFNSYTKYNQKFKDRVTITADTSASTAYMELSSLRSEDTAVYYCANSVSTYWGQGTTVTVSS
VL: DVVMTQSPLSLPVTLGQPASISCKSSQSLLDSDGKTYLNWFQQRPGQSPRRLIQLVSKLNSGVPDRFSGSGSGTDFTLKISRVEAEDVGVFYCWQGTHFPRTFGGGTKLEIK
notes: Humanized; constant regions not specified
B2: hAb008-18 (antibody, V domains shown)
VH: B1 VH with I48M, A72R, N98R
VL: B1 VL with F41L
notes: as for B1
B3: hAb008-27 (antibody, V domains shown)
VH: B1 VH with V68A, Y95F
VL: B1 VL with F41L, Q42L
notes: as for B1
B4: hAb008-19 (antibody, V domains shown)
VH: B1 VH with I48M, A72R, N98R
VL: B1 VL with F41L, Q42L
notes: as for B1
B5: hAb008-29 (antibody, V domains shown)
VH: B1 VH with R38K, V68A, Y95F
VL: B1 VL
notes: as for B1
B6: hAb008-20 (antibody, V domains shown)
VH: B1 VH
VL: B1 VL with Q54Y, F91Y
notes: as for B1
B7: hAb008-17 (antibody, V domains shown)
VH: B1 VH with I48M, A72R, N98R
VL: B1 VL
notes: as for B1
B8: hAb008-22 (antibody, V domains shown)
VH: B1 VH
VL: B1 VL with F41L
notes: as for B1
B9: hAb008-28 (antibody, V domains shown)
VH: B1 VH with R38K, V68A, Y95F
VL: B1 VL with Q54Y, F91Y
notes: as for B1
B10: hAb008-23 (antibody, V domains shown)
VH: B1 VH
VL: B1 VL with F41L, Q42L
notes: as for B1
B11: hAb008-30 (antibody, V domains shown)
VH: B1 VH with R38K, V68A, Y95F
VL: B1 VL with F41L
notes: as for B1
B12: hAb008-24 (antibody, V domains shown)
VH: B1 VH with V68A, Y95F
VL: B1 VL with Q54Y, F91Y
notes: as for B1
B13: hAb008-25 (antibody, V domains shown)
VH: B1 VH with V68A, Y95F
VL: B1 VL
notes: as for B1
B14: hAb008-31 (antibody, V domains shown)
VH: B1 VH with R38K, V68A, Y95F
VL: B1 VL with F41L, Q42L
notes: as for B1
B15: hAb008-16 (antibody, V domains shown)
VH: B1 VH with I48M, A72R, N98R
VL: B1 VL with Q54Y, F91Y
notes: as for B1
B16: hAb001-17 (antibody, V domains shown)
VH: QVQLVQSGAEVKKPGASVKVSCKASGYSFTNYYMHWVRQAPGQRLEWMGWTYPGNNNIKYNEKFKGRVTITRDTSASTAYMELSSLRSEDTAVYYCARDGYGYYFFDYWGQGTLVTVSS
VL: DIVMTQSPDSLAVSLGERATINCKSSQSLLNNRTRKNYLAWYQQKPGQPPKLLIYWASTRESGVPDRFSGSGSGTDFTLTISSLQAEDVAVYYCKQSYTLRTFGGGTKLEIK
notes: as for B1
B17: hAb007-21 (antibody, V domains shown)
VH: QVQLVQSGAEVKKPGASVKVSCKASGSTFTDNYIHWVRQAPGQRLEWIGWIYPGSVNIKYNEKFKDRVTITADTSASTAYMELSSLRSEDTAVYYCARDISRYYFDYWGQGTTVTVSS
VL: B16 VL with N32S, Y98F, T99I
notes: as for B1
B18: hAb001-29 (antibody, V domains shown)
VH: B16 VH with R38K, M48I, V68A, R72A
VL: B16 VL
notes: as for B1
B19: hAb001-18 (antibody, V domains shown)
VH: B16 VH
VL: B16 VL with S69T
notes: as for B1
B20: hAb001-30 (antibody, V domains shown)
VH: B16 VH with R38K, M48I, V68A, R72A
VL: B16 VL with S69T
notes: as for B1
B21: hAb001-32 (antibody, V domains shown)
VH: B16 VH with R38K, M48I, V68A, R72A
VL: B16 VL with I21M, N22S, S69T
notes: as for B1
B22: hAb001-19 (antibody, V domains shown)
VH: B16 VH
VL: B16 VL with I21M, N22S
notes: as for B1
B23: hAb001-31 (antibody, V domains shown)
VH: B16 VH with R38K, M48I, V68A, R72A
VL: B16 VL with I21M, N22S
notes: as for B1
B24: hAb001-20 (antibody, V domains shown)
VH: B16 VH
VL: B16 VL with I21M, N22S, S69T
notes: as for B1
B25: hAb001-24 (antibody, V domains shown)
VH: B16 VH with M48I, R72A
VL: B16 VL with I21M, N22S, S69T
notes: as for B1
B26: hAb001-25 (antibody, V domains shown)
VH: B16 VH with M48I, V68A, R72A
VL: B16 VL
notes: as for B1

Molecular target: T1, human CD3e/g antigen (ACRO, catalog number CDG-H52W5) (human, UniProt P07766 23-126; P09693 23-116)
T1 construct: Bought reagent used as the Biacore analyte; also called hCD3e/g
Assay: SPR (Biacore 8K), antibody captured via anti-human Fc
Method: The equilibrium dissociation constant of binding of CD3 antibodies to human CD3e/g antigen (purchased from ACRO, catalog number CDG-H52W5) was determined by kinetic binding method using Biacore 8K (GE) system. Through the capture method, the carboxylated dextran surface of CM5 chip was first activated with NHS (N-hydroxysuccinimide) and EDC (1-(3-dimethylaminopropyl)-3-ethylcarbodiimide hydrochloride), and then added with an anti-human IgG (Fc) antibody, the free amino group of which could form an amide bond with the activated carboxyl group, thereby being fixed on the chip surface. The anti-human IgG (Fc) antibody could bind to the Fc end of CD3 antibodies to capture the antibodies, and then a series of concentrations of antigen were added to obtain the binding and dissociation curves of antibody and antigen, and the corresponding kinetic constants were calculated by Biacore Evaluation software, as shown in the table below.

| Kd | koff | kon | Binder |
| --- | --- | --- | --- |
| 18.6 nM | 0.00382 s⁻¹ | 205000 M⁻¹ s⁻¹ | B1 |
| 33.9 nM | 0.00691 s⁻¹ | 204000 M⁻¹ s⁻¹ | B2 |
| 18 nM | 0.00475 s⁻¹ | 264000 M⁻¹ s⁻¹ | B3 |
| 26.1 nM | 0.00573 s⁻¹ | 219000 M⁻¹ s⁻¹ | B4 |
| 20.8 nM | 0.00378 s⁻¹ | 182000 M⁻¹ s⁻¹ | B5 |
| 14.5 nM | 0.00152 s⁻¹ | 105000 M⁻¹ s⁻¹ | B6 |
| 7.57 nM | 0.00126 s⁻¹ | 167000 M⁻¹ s⁻¹ | B7 |
| 20.6 nM | 0.00588 s⁻¹ | 285000 M⁻¹ s⁻¹ | B8 |
| 27.2 nM | 0.00441 s⁻¹ | 162000 M⁻¹ s⁻¹ | B9 |
| 17.4 nM | 0.00487 s⁻¹ | 280000 M⁻¹ s⁻¹ | B10 |
| 20.4 nM | 0.00522 s⁻¹ | 256000 M⁻¹ s⁻¹ | B11 |
| 21.5 nM | 0.00269 s⁻¹ | 125000 M⁻¹ s⁻¹ | B12 |
| 36.8 nM | 0.00741 s⁻¹ | 202000 M⁻¹ s⁻¹ | B13 |
| 15.1 nM | 0.00381 s⁻¹ | 252000 M⁻¹ s⁻¹ | B14 |
| 18.6 nM | 0.00189 s⁻¹ | 101000 M⁻¹ s⁻¹ | B15 |
| 15.7 nM | 0.00452 s⁻¹ | 288000 M⁻¹ s⁻¹ | B16 |
| 8.06 nM | 0.00377 s⁻¹ | 468000 M⁻¹ s⁻¹ | B17 |
| 22.8 nM | 0.00722 s⁻¹ | 316000 M⁻¹ s⁻¹ | B18 |
| 35.2 nM | 0.0121 s⁻¹ | 343000 M⁻¹ s⁻¹ | B19 |
| 25.8 nM | 0.00835 s⁻¹ | 324000 M⁻¹ s⁻¹ | B20 |
| 16.8 nM | 0.00497 s⁻¹ | 296000 M⁻¹ s⁻¹ | B21 |
| 94.5 nM | 0.0354 s⁻¹ | 375000 M⁻¹ s⁻¹ | B22 |
| 19.7 nM | 0.00624 s⁻¹ | 317000 M⁻¹ s⁻¹ | B23 |
| 10.8 nM | 0.00303 s⁻¹ | 281000 M⁻¹ s⁻¹ | B24 |
| 16.6 nM | 0.00655 s⁻¹ | 394000 M⁻¹ s⁻¹ | B25 |
| 22.6 nM | 0.00896 s⁻¹ | 397000 M⁻¹ s⁻¹ | B26 |
